Assay results as given in patent publication US20180044415A1 (AbbVie / Abbott, published 2018).

Target: T1, human DLL3 (immobilized human DLL3 or h293-hDLL3 cells) (human, UniProt Q9NYJ7 27-492, limits assumed)
T1 construct: the sentence says 'immobilized human DLL3 or h293-hDLL3 cells'
T1 sequence: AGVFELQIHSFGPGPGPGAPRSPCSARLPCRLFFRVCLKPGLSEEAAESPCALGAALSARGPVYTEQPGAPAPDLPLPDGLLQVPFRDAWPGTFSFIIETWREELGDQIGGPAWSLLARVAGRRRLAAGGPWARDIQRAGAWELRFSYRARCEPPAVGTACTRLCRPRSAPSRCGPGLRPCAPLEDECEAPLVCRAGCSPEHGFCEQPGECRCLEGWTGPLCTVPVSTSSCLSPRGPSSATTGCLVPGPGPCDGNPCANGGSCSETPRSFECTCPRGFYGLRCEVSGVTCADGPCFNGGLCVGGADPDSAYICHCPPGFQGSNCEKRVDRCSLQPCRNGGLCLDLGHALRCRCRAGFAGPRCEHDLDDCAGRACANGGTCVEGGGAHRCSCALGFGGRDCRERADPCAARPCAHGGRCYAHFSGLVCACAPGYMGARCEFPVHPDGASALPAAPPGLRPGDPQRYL
Test: hybridoma screening on immobilized human DLL3 or on h293-hDLL3 cells

B1: SC16.3 (antibody, V domains shown)
VH: QVTLKESGPGILQPSQTLSLTCSFSGFSLSTSGMGVGWIRQPSGKGLEWLAHIWWDDVKRYNPALKSRLTISKDTSSSQVFLKIASVDTADTATYYCARIADYGGDYYAMDYWGQGTSVTVSS
VL: QIVLTQSPAIMSVSLGERVTMTCTASSSVSSSYLHWYQQKPGSSPKLWIYSTSNLASGVPARFSGSGSGTSYFFTISSMEAEDAATYYCHQYHRSPFTFGAGTKLKIR
notes: murine mAb; variable regions only
binding result: binds

B2: SC16.10 (antibody, V domains shown)
VH: QVTLKESGPGILQSSQTLSLTCSFSGFSLSTSGMGVGWIRQPSGKGLEWLAHIWWDDVKRYNPVLKSRLTISKDTSSSQVFLKIASVDTADTATYYCARLVDDLYYFDYWGQGTTLTVSS
VL: QIVLTQSPAIMSASLGERVTMTCTASSSVSSSYLHWYQQKPGSSPKLWIYSTSNLASGVPTRFSGSGSGTSYSLTISSMEAEDAATYYCHQYHRSPFTFGSGTKLEIK
notes: as for B1
binding result: binds

B3: SC16.147 (antibody, V domains shown)
VH: QIQLVQSGPELTKPGETVKISCKASGYTFTDYSLHWVKQALGKGLKWMGWINTETGEPAYADDFKGRFAFSLETSASTAYLQINDLKNEDTTTYFCGIYDGYAMDYWGQGTSVTVSS
VL: DIQMTQTASSLSASLGDRVTISCRASQDINNYLNWYQQKPDGTVKLLIYYTSRLHSGVPSRFSGSGSGTDYSLTISILEQEDIATYFCQQGDTLPWTFGGGTKLEIK
notes: as for B1
binding result: binds

B4: SC16.4 (antibody, V domains shown)
VH: QIQLVQSGPELKKPGETVKISCKASGYTFTDYSMHWVKQAPGKGLKWMGWINTETGEPGYADDFKGRFAFSLETSASTAYLQINNLKNEDTATYFCARYDGYAMDYWGQGTSVTVSS
VL: DIQMTQTTSSLSASLGDRVTISCRASQDISNYLNWYQQKPDGTVKLLIYYTSRLHSGVPSRFSGSGSGTDYSLTISNLELEDIATYFCQQGDMLPWTFGGGTKLEIK
notes: as for B1
binding result: binds

B5: SC16.144 (antibody, V domains shown)
VH: QIQLVQSGPELKKPGETVKISCKASGYTFTNYGMNWVKQAPGKGLKWVGWINTYTGEPTYADDFKGRFAFSLETSASTAYLQIDNLKNEDTATYFCARVGDYVGFDYWGQGTTLTVSS
VL: SIVMTQTPKFLLVSAGDRVTITCKASQSVSNDVGWYQQKPGQSPKLLIYYASNRYNGVPDRFTGSGYGTDFTFTISTVQAEDLAVYFCQQDYSSPWTFGGGTKLEIK
notes: as for B1
binding result: binds

B6: SC16.18 (antibody, V domains shown)
VH: EVKLEESGGGLVQPGESMKLSCAASGFTFSDAWMDWVRQSPEKGLEWVAEIRNKANNHATYYAESVKGKFTISRDDSKSRVYLQMNNLRAADTGIYYCTAYSNFAYWGQGTLVTVST
VL: DIQMTQTTSSLSASLGDRVTISCRASQNIINYLNWYQQKPDGTVKLLIYYTSRLHSGVPSRFSGSGSGTDYSLTISNLEPEDIATYYCQQYSERPYTFGGGTKLEIK
notes: as for B1
binding result: binds

B7: SC16.41 (antibody, V domains shown)
VH: EVKLEESGGGLVQFGGSMKLSCAASGFTFSDAWMDWVRQSPEKGLEWVAEIRNKANNHATYYPESVKGRFTISRDDSKSRVYLQMNNLRAEDTGIYYCTGYSSFAYWGQGTLVTVSA
VL: DIQMTQTTSSLSASLGDRVTISCRASQDVINYLNWYQQKPDGTVKLLIYYTSRLHSGVPSRFSGSGSRTDYSLTISNLEPEDIATYYCQQYSERPYTFGGGTKLEIK
notes: as for B1
binding result: binds

B8: SC16.15 (antibody, V domains shown)
VH: QVQLQQSGAELAKPGASVKMSCKASGYTFTRYWIHWIKQRPGQGLEWIGYINPTTVYTEFNQNFKDKATLTADKSSTTASMQLSSLTSEDSAVYYCARGGSNFFDYWGQGTTLTVSS
VL: DIQMTQSPASLAASVGETVAITCRASENIYYNLAWYQQKQGKSPQLLIYTANSLEDGVPSRFSGSGSGTQYSLKINSMQPEDSATYFCKQAYDVPPTFGGGTKLEIK
notes: as for B1
binding result: binds

B9: SC16.11 (antibody, V domains shown)
VH: QIQLVQSGPELKKPGETVKISCKASGYTFTDYSMHWVKQAPGKGLKWMGWINTETVEPTYADDFMGRFAFSLETSASTAFLQINNLENEDTATYFCARFGSYAMDYWGQGTSVTVSS
VL: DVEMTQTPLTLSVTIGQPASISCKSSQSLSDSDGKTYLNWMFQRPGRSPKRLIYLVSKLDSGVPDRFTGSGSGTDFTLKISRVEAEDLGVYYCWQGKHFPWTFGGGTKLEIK
notes: as for B1
binding result: binds

B10: SC16.148 (antibody, V domains shown)
VH: QIQLVQSGPELKKPGETVKISCKASGYTLTNYGMNWVKQAPGKGLKWMGWINTYTGEPTYADDFKGRFAFSLETSARIVYLQINNLKNEDTATYFCAKYEAHEGFVYWGQGTLVTVSA
VL: QIVLTQSPAIMSASPGEKVTMTCSASSSVSYMYWYQQKPGSSPRLLIYDTSNLASGVPVRFSGSGSGTSYSLTISRMEAEDTATYYCQEWSNNPLTFGDGTKLELK
notes: as for B1
binding result: binds

B11: SC16.5 (antibody, V domains shown)
VH: QVTLKESGPGILQPSQTLSLTCSFSGFSLSTSGMGVGWIRQPSGEGLEWLADIWWDDNKYYNPSLKSRLTISKDTSSNQVFLKITSVDTADTATYYCARRVNYVYDPYYAMDYWGQGTSVTVSS
VL: QIVLTQSPAIMSASPGEKVTMTCSASSSVSYMHWYQQKSGTSPKRWIYDTSKLASGVPARFSGSGSGTSYSLTISSMEAEDAATYYCQQWTRNPLTFGAGTKLELK
notes: as for B1
binding result: binds

B12: SC16.25 (antibody, V domains shown)
VH: QVTLKESGPGILQPSQTLSLTCSFSGFSLSTSGMGVGWIRQPSGEGLEWLTDIWWDDNKYYNPSLKSRLTISKDTSSNQVFLNITSVDTADTATYYCARRVNYYYDPYYAMDYWGQGTSVTVSS
VL: QIVLTQSPAIMSASPGEKVTMTCSASSSVSYMHWYQQKSGTSPKRWIYDSSKLASGVPARFSGSGSGTSYSLTISSMEAEDAATYYCQQWSSNPLTFGAGTKLELK
notes: as for B1
binding result: binds

B13: SC16.7 (antibody, V domains shown)
VH: EVQLQQSGPELVKPGASVKISCKASGYSFTGYKMHWVKQSHVKSLEWIGRINPYNGATSYNQNFKDKATLTVDKSSSTAYMDLHSLTSEDSAVYFCARGDYRYDWFAYWGQGTLVTVSA
VL: NIMMTQSPSSLAVSAGEKVTMSCKSSQSVLYSSNQKNYLAWYQQKPGQSPKLLIYWASTRESGVPDRFTGSGSGTDFTLTISTVQVEDLAVYYCHQYLSSWTFGGGTKLEIK
notes: as for B1
binding result: binds

B14: SC16.143 (antibody, V domains shown)
VH: QVQLQQSGPELVKPGASVRISCKASGYTFTSYYIHWVKQRPGQGLEWIGWIYPGNGNTKYNEKFKGKATLTADKSSSTAYMQISSLTSEDSAVYFCARERWLLLWFAYWGQGTLVTVSA
VL: DVLMTQTPLSLPVSLGDQASISCRSSQSIVHSNGNTYLEWYLQKPGQSPKLLIYKVSNRFSGVPDRFSGSGSGTDFTLKISRVEAEDLGVYYCFQGSHVPLTFGAGTKLELK
notes: as for B1
binding result: binds

B15: SC16.8 (antibody, V domains shown)
VH: QAQLQQSGAELVRPGTSVKVSCKASGYAFTNYLIEWVKQRPGQGLEWIGVINPGTGGTNYNENFKGKATLTADKSSSTAYMQLSSLTSDDSAVYFCARSPYDYHEGAMDYWGQGTSVTVSS
VL: EIQMTQSPSSMSASLGDRITITCQATQDIVKNLNWYQQKPGKPPSFLIYYAIELAEGVPSRFSGSGSGSDYSLTISNLESEDFADYYCLQFYEFPFTFGAGTKLELK
notes: as for B1
binding result: binds

B16: SC16.20 (antibody, V domains shown)
VH: QVQLQQSGTELVRPGTSVRVSCKASGYAFGNHLIEWVKQRPGQGLEWIGVINPGTGGTHYNEKFKDKARLTADKSSNTAYMHLNSLTSDDSAVYFCARSPYDYHEGAMDYWGQGTSVTVSS
VL: EIQMTQSPSSMSASLGDRITITCQATQDIVKNLNWYQQKPGKPPSFLIYYATELAEGVPSRFSGSGSGSDYSLTIRNLESEDFADHYCLQFYEFPFTFGAGTKLELK
notes: as for B1
binding result: binds

B17: SC16.19 (antibody, V domains shown)
VH: EVQLQQSGAELVRPGASVKLSCTASGFNIKDSLLHWVKQRPEKGLEWIGWIDPEDGETKYAPNFQDKATITTDSSSNTAYLQLISLTSVDTAIYYCAYGNYVRHFDYWGQGTTLTVSS
VL: DIQMTQSPSSLSASLGGKVTFTCKASQDIHKYVAWYQHKPGKGPRLLIHYTSTLQPGISSRFSGSGSGRDYSFSISNLEPEDIATYYCLQYNNLYTFGGGTKLEIK
notes: as for B1
binding result: binds

B18: SC16.21 (antibody, V domains shown)
VH: QVQLQQSGPELVKPGASVKISCKASGYAFSSSWMNWVKQRPGKGLEWIGRIYPGDGDTNYNGKFKGKATLTADKSSSTAYMQLSSLTSEDSAVYFCAMGIYNYDGSRYYSMDYWGQGTSVTVSS
VL: DIVMTQSPSSLAMSVGQKVTMSCKSSQSLLNSSNQKNYLAWYQQEPGQSPKLLVSFASTRESGVPDRFTGSGSGTDFTLTISGVQAEDLAVYYCQQHYSIPLTFGAGTKLELK
notes: as for B1
binding result: binds

B19: SC16.126 (antibody, V domains shown)
VH: QVQMKESGPGLVAPSQSLSITCTVSGSSLTNYGVHWVRQPPGKGLEWLGVIWAGGSTNYNSALMSRLSISKDNSKSQVFLKMNSLQTDDTAMYYCARDWEGWFAYWGQGTLVTVSA
VL: DIQMNQSPSSLSASLGDTITITCHASQNINVWLSWYQQKPGNIPKLLIYKASNLHTGVPSRFSGSGSGTGFTLTISSLQPEDIATYYCQQGQSYPFTFGSGTKLEIK
notes: as for B1
binding result: binds

B20: SC16.149 (antibody, V domains shown)
VH: QVQLKESGPGLVAPSQSLSITCAVSGFSLTSFGVHWVRQPPGKGLEWLGVIWAGGSTNYYSALMSRLSISIDNSKSQVFLKMNSLQTDDTAMYYCARDWEGWFAYWGQGTLVTVSA
VL: DIQMNQSPSSLSASLGDTITITCHASQNINVWLSWYQQKPGNIPKLLIYKASHLHTGVPSRLSGSGSGTGFTLTISSLQPEDIATYYCQQGQSYPFTFGSGTTLEIK
notes: as for B1
binding result: binds
